Experiment: soluble on expression in E. coli; label from the status in PepcDB or PDB records

| Sequence | soluble on expression in E. coli |
| --- | --- |
| MKDSAPELNVSSSETEEDKEEAKPDGEKDPDFNQSNGGTKRQKISHQNYIAYQKQVIRRSMRHRKVRGEKALLVSANQTLKELKIQIMHAFSVAPFDQNLSIDGKILSDDCATLGTLGVIPESVILLKADEPIADYAAMDDVMQGKDEFVLGIC | not soluble |
| MGHHHHHHSHMGNCCWTQCFGLLRKEAGRLQRVGGGGGSKYFRTCSRGEHLTIEFENLVESDEGESPGSSHRPLTEEEIVDLRERHYDSIAEKQKDLDKKIQKEQERQRIVQQYHPSNNGEYQSSGPEDDFESCLRNMKSQYEVFRSSRLSSDATVLTPNTESSCDLMTKTKSTSGNDDSTSLDLEWEDEEGMNRMLPMRERSKTEEDILRAALKYSNKETGSNPTSASDDSNGLEWENDFVSAEMDDNGNSEYSGFVNPVLELSDSGIRHSDTDQQTR | soluble |
| MRLTNYSDYALRILTYLGLKREELSTITEIADCYGISRNHVVKIVHHLGQLGYVDTLRGKNGGIRLAHAPEKINIGEVIRHTETSMDIVECFSNQNSCIIGCSCVLRTAISEALSAFMAVLDDYTLADLIAPRRQLSRKLHVMQISDSLSD | not soluble |
| MSRRGLEREGGKPVSSDAKGLKRVDVRLKWDPSPWDRPPHHLDIIATTYAADAPHGRPVYVVQFDKRSPDGTINMSRHSRTGQGFGFVEEMTFELDRLSPSIARVIVGVAIHQDNGHKTFDDVSNTGVVVAEGYRELLTDGFERVAGATAATVAEFTRNASGAWEFREAVRGFDSDPVLFATEMGSAPRP | soluble |
| KRELTVLDLHPGAGKTRRVLPQLVREAVKKRLRTVILAPTRVVASEMYEALRGEPIRYMTPAVQSERTGNEIVDFMCHSTFTMKLLQGVRVPNYNLYIMDEAHFLDPASVAARGYIETRVSMGDAGAIFMTATPPGTTEAFPPSNSPIIDEETRIPDKAWNSGYEWITEFDGRTVWFVHSIKQGAEIGTCLQKAGKKVLYLNRKTFESEYPKCKSEKWDFVITTDISEMGANFKADRVIDPRKTIKPILLDGRVSMQGPIAITPASAAQRRGRIGRNPEKLGDIYAYSGNVSSDNEGHVSWTEARMLLDNVHVQGGVVAQLYTPEREKTEAYEGEFKLKTNQRKVFSELIRTGDLPVWLAFQVASANVEYHDRKWCFDGPNEHLLLENNQEIEVWTRQGQRRVLKPRWLDGRITSDHLNLKSFKEFASGKR | soluble |
| MGSDKIHHHHHHMTSPNTTQGAADPIQSYLNQGLRNYWYPVAPSWQVGDAPVGITRLGDQIVLWRDKEGKVRALEDRCPHRGARLSLGWNLGGSVACWYHGIEVDGGGTVTKVPAVSNCPLEGQKCVKSYPVEEHAGAIFLWFGDDAHKEPAPLVLPEELVGEEYASFLCMSHWKCNYQYAIDNVMDPMHGAYLHATSHSMAEGDKQADMRVRKTETGLMFEKIGQRDVNFDWVELGETGCLWMRLAIPYKKKFGPGGNFGIIGFAVPVDEDNCQVYFWRTRKVQGWQRDAWRFMYRNRLEGLHWAVLEQDRYVLESMAPNARDHEFLYQHDVGMTRVRRMLRQRAQQHFADLDAHRAQAVSATPAAAEAGHSHA | not soluble |
| TPGFSLGFIVNMRLHDHFDLRLLPTVGFYSRSIQYDFIKTSEIQTIESTFVEFPLLLKYKSQRRNNSRLYVTGGFKASIEAGAKKKQRKSTDLRTNGFDLCLDMGVGMDIYCPLFKFSPEIRYSHGLLNLLNNDPNVYSSSLSRLSSNTISLFFNFE | not soluble |
| MNRFFILSGCSGGGKSTLLAELARRGFATVEEPGRRIVIEETRNGGTALPWIDMQAFARRAIAMALEDRRVTPKEGLVFFDRGLIDAASALHHISGDRFVNTLRDTHRYNSLVFLTPPWPEIYQSDDERKHGFDAAVEEYERLVRDYEGLGYDIVVLPKSAVAERADLILTRIGLEHHHHHH | not soluble |
| MAHHHHHHMSFVVIRLLEVLPTQVRTQLTANAEYVVSVSSAQRLSTFCSQGPYAATRLQLSDFDGAARLWEPQWNVVEALPATKEVHDVSRVCAVYRGNSGVTAFAFIDEHGTVLATTRWVDCALSTVSGRERAVLQAAQLRKLFTQCRPTVMAIGASSIACLPLLRTLETFLREQVHQSAVVDVPVVWASVEVPRYYSVTTYARLELPQTENIVVTSVALARYVQDPLQVLCSLFEGEQTALQLCRTIRISASHDRQLYQASGVGDEPVGGGGGPVGRRYCVPPQHCRDAAVCSRPRPRQSACVGQCHPSLRRSAKSTASGAASGTLRGRHRAERRAGAARSLAGAMRRGAPVAPSRCNADPVAVVRDRLFGGKGDCLLIDAAGRSVASRAAWNGAGGAPGCTLPRRRAFYGCQGQGECGGPGRRGSS | not soluble |

Source: the DeepSol protein solubility set
